Results published in patent US9951123B2, “Anti-LPS O11 antibody” (priority 2013, dated 2018).
Residue numbers refer to the chain shown, from its start. Converted amounts (≈) assume the structure as drawn.

B1: No.76: mouse monoclonal anti-LPS O11 antibody prepared using pJON mIgG2a and pJON mIgκ; variable regions SEQ ID NO: 8 and 4 (antibody, V domains shown)
VH: MGWSCIILFLVAAATGVHSQVQLQQPGAELVKPGASVNLSCKSSGYTFTNYWINWVKQRPGQGLEWIGDIYPGTSTTNYNEKFKNKATLTVDTSSSTAYMQLSSLTSDDSAVYYCTRIYYDYDGYYFDYWGQGTTLTVSS
VL: MESQTLVFISILLWLYGADGNIVMTQSPKSMSMSVGERVTLSCKASENVGTSVSWYQEKPEQSPKLLIFGASNRYTGVPDRFTGSGSATDFTLTISSVQAEDLADYHCGQSYSYPYTFGGRTKLEIKRA
modifications: Heavy chain variable of No.76; Light chain variable of No.76
B2: #1G5: anti-LPS O11 monoclonal antibody prepared using pJON mIgG2a-hIgG1 and pJON mIgκ; variable regions SEQ ID NO: 16 and 12 (antibody, V domains shown)
VH: MGWSCIILFLVAAATGVHSQVQLQQPGAELVKPGASVKLSCKASGYTFTSYWINWVKQRPGQGLEWIGNIYPGSSSINYNEKFKSKATLTVDTSSSTAYMQLSSLTSDDSAVYYCSRTIYNYGSSGYNYAMDYWGQGTSVIVSS
VL: B1 VL with A18S, T51N, E58Q, P60A, L66P, F69Y, R121G
modifications: Heavy chain variable of #1G5; Light chain variable of #1G5
B3: #4C12: anti-LPS O11 monoclonal antibody prepared using pJON mIgG2a-hIgG1 and pJON mIgκ; variable regions SEQ ID NO: 24 and 20 (antibody, V domains shown)
VH: MGWSCIILFLVAAATGVQSQVQLQQPGAELVKPGASVKLSCKASGYTFTTYWINWMQQRPGQGLEWIGNIYPGTRSSNYNEKFKNKATLTVDTSSSTAYMQLNSLTSDDSAVYYCTRVYYDHVGYYFDYWGQGTTLTVSS
VL: B1 VL with T51V, E58Q, F69Y, Y75C, G86R, I95V, S97N, R121G, K123R
modifications: Heavy chain variable of #4C12; Light chain variable of #4C12

Experiments:
[1] = test system: Pseudomonas aeruginosa clinical isolates No. 12 and No. 31; assay: Minimum inhibitory concentration of LVFX against clinical isolates; type: cell-based
[2] = test system: Pseudomonas aeruginosa ATCC 29260; assay: Opsonophagocytic killing activity against Pseudomonas aeruginosa ATCC 29260; type: cell-based; conditions: antibody culture supernatant samples
Experimental: As a buffer for measurement, 0.1% gelatin/1% FBS/Hank's balanced salt solution (opsonization buffer) was prepared. HL60 as effector cells were cultured in 10% FBS-containing RPMI 1640 (Invitrogen) supplemented with 0.8% N,N-dimethylformamide for 5 or 6 days to prepare neutrophil-like, differentiated HL60 in an opsonization buffer. As the target bacteria, Pseudomonas aeruginosa ATCC 29260 cultured on MHA was prepared by suspending it in the opsonization buffer. As a complement, Baby Rabbit Serum (Cederlane) was prepared by dissolving it with ice-cold distilled water. Bacterial suspension (final concentration of 2×10^4 cells/ml) was mixed with antibody culture supernatant or purified antibody, allowed to stand at 4° C. for 30 minutes, and the prepared neutrophil-like, differentiated HL60 cells (final concentration of 4×10^6 cells/ml) and a complement (final concentration 10%) were added thereto, followed by incubation with gentle agitation at 37° C. for 1 hour under 5% CO2. After the incubation, each sample was spread on MHA, and colonies were counted on the next day.
Opsonophagocytic killing activity of each of cNo.76, c#1G5M, c#1G5, c#4C13KM, c#4C13, Meiji 1640, Meiji 1656, and 1BO11 hIgG1 against Pseudomonas aeruginosa ATCC 29260 was measured in accordance with the method of 1)-3-2. The opsonophagocytic killing activity was expressed in terms of 50% minimum growth inhibitory concentration.
In accordance with the method of 1)-3-2, the opsonophagocytic killing activities of h#1G5-H2/L2, h#1G5-H3/L3, h#4C13K-H2/L2, and h#4C13k-H3/L3 against ATCC 29260 were measured, and then compared to those of c#1G5 and c#4C13. The opsonophagocytic killing activity was expressed in terms of 50% minimum growth inhibitory concentration.

Molecule | MIC ([1]; No. 12 strain) [µg/mL] | MIC ([1]; strain No. 31) [µg/mL] | opsonophagocytic killing activity in screening [2]
C[C@H]1COc2c(N3CCN(C)CC3)c(F)cc3c(=O)c(C(=O)O)cn1c23 [LVFX, levofloxacin] | > 128 | 32 (≈ 88.6 µM) | 
B1 |  |  | strong opsonophagocytic killing activity
B2 |  |  | strong opsonophagocytic killing activity
B3 |  |  | strong opsonophagocytic killing activity
